From patent US20230064703A1 (NANJING GENSCRIPT BIOTECH, published 2023)

target: T1, GITR expressed on the effector cell line of the reporter gene assay; assay: cell-based or functional assay

Bottom, GITR functional reporter gene assay | EC50, GITR functional reporter gene assay | LogEC50, GITR functional reporter gene assay | Span, GITR functional reporter gene assay | Top, GITR functional reporter gene assay | Binder
16300 | 0.0145 µg/mL | -1.84 | 32000 | 48300 | chimeric antibody 45F1F3 (human IgG1) (antibody, V domains shown) VH: DVQLQESGPGLVKPSQSLSLTCTVTGYSITIDYAWNWIRQFPGNKLEWMGYISNSGYTSYNPSLKSRISFTRDTSKNQFFLQLNSVTPEDSATYYCTRSGHYDLFDYWGQGTTLTVSS VL: DVVMTQAPLTLSVTIGQPASISCKSSQSLFDRDGKTYLSWLLERPGQSPKRLIYLVSNLDSGVPDRFTGSGSGTDFTLKISRVEAEDLGVYYCWQGTHFPYTFGGGTKVEMKR
18000 | 0.386 µg/mL | -1.41 | 31500 | 49500 | chimeric antibody 270C5C10(Ha-L) (human IgG1) (antibody, V domains shown) VH: EVQLQQSGPEVVKPGASVKISCKASGYTFTDNYMNWAKQSQGKSLEWIGDINPNNGGSRYKEKFKDKATLTVDKSSRTAYMELRSLTSEDSAVYYCANPGSYGFAYWGQGTLVTVSA VL: not shown
16800 | 0.0796 µg/mL | -1.1 | 37000 | 53800 | chimeric antibody 225H7D12 (human IgG1) (antibody, V domains shown) VH: QVQLQQSGAEVMKPGASVKLSCKTTGYRFTGYWIEWVKQRPGHGLEWIGEILPGSGVSNNNEKFRDKATFTADTSSNTAYIQLSSLTTDDSAIYYCARKASYYTMDYWGQGTSVTVSS VL: QIVLTQSPAIMSASLGERVTMTCTASSSVSSFYFHWYQQKPGSSPKLWIYSISNLASGVPTRFSGSGSGTSYSLTISSMEAEDAATYYCHQYHRSPRTFGGGTKLEIKR

target: T1, GITR expressed on the effector cell …; assay: cell-based or functional assay; remark: another data set of the same source

EC50, GITR functional reporter gene assay (luciferase) | Binder
0.0145 µg/mL | anti-GITR mouse monoclonal antibody 45F1F3 (antibody, V domains shown) VH: DVQLQESGPGLVKPSQSLSLTCTVTGYSITIDYAWNWIRQFPGNKLEWMGYISNSGYTSYNPSLKSRISFTRDTSKNQFFLQLNSVTPEDSATYYCTRSGHYDLFDYWGQGTTLTVSS VL: DVVMTQAPLTLSVTIGQPASISCKSSQSLFDRDGKTYLSWLLERPGQSPKRLIYLVSNLDSGVPDRFTGSGSGTDFTLKISRVEAEDLGVYYCWQGTHFPYTFGGGTKVEMK
0.151 µg/mL | anti-GITR mouse monoclonal antibody 223F12C4 (antibody, V domains shown) VH: QVQLQQSGAELVKPGASVKVSCKASGYSFTSYWIHWVKQRPGQGLEWIGRIHPSDGDIDHNEKFKGKATLTVDKSSSTAYMQLTSLTSEDSAVYYCLCYIMDYWGQGTSVTVSS VL: DIQMNQSPSSLSASLGDTIAITCHASQNINVWLSWYQQKPGNIPKLLIYKAAKLQTGVPSRFSGSGSGTGFTLTISSLQPEDIATYYCHQGQDYPLTFGAGTKLELK
0.0137 µg/mL | anti-GITR mouse monoclonal antibody 163H12G7 (antibody, V domains shown) VH: QVQLQQSGAELASPGASVKMSCKASGYTFSTYTVHWVKQRPGQGLEWIGYINPASGYTNYNQKFKDRATLTADRSSTTAYMQLSGLTSEDSAVFYCARWSYWYFDVWGTGTTVTVSS VL: not shown
1.05 µg/mL | anti-GITR mouse monoclonal antibody 134D7B3 (antibody, V domains shown) VH: QVQLQQSGAELVRPGTSVKVSCKASGYAFNNYVIEWVKQRPGQGLEWIGVIYPGNGGSDYNEKFKVKAKLTADKSSSTAYMQLSSLTSDDSAVYFCARFYYFGSSYAMDYWGQGTSVTVSS VL: DIQMTQTTSSLSASLGDRVTISCRASQDISNYLNWYQQKPDGTIKLLIYYTSRLHSGVPSRFSGSGSGTDYSLTITNLEQEDIATYFCQQGNTLPFTFGSGTKLEIK
0.0796 µg/mL | anti-GITR mouse monoclonal antibody 225H7D12 (antibody, V domains shown) VH: QVQLQQSGAEVMKPGASVKLSCKTTGYRFTGYWIEWVKQRPGHGLEWIGEILPGSGVSNNNEKFRDKATFTADTSSNTAYIQLSSLTTDDSAIYYCARKASYYTMDYWGQGTSVTVSS VL: QIVLTQSPAIMSASLGERVTMTCTASSSVSSFYFHWYQQKPGSSPKLWIYSISNLASGVPTRFSGSGSGTSYSLTISSMEAEDAATYYCHQYHRSPRTFGGGTKLEIK

target: T1, GITR expressed on the effector cell …; assay: cell-based or functional assay; remark: another data set of the same source

EC50, GITR functional reporter gene assay (GenScript, NFkB luciferase) | Binder
1.17 µg/mL | humanized antibody 225H7D12 VH1.1 + VL1.2 (antibody, V domains shown) VH: QVQLVQSGAEVKKPGASVKVSCKTTGYRFTGYWIEWVRQAPGQGLEWIGEILPGSGVSNNNEKFRDRATMTADTSISTAYMELSRLRSDDTAVYYCARKASYYTMDYWGQGTLVTVSS VL: DIQMTQSPSSLSASVGDRVTITCTASSSVSSFYFHWYQQKPGKAPKLWIYSISNLASGVPSRFSGSGSGTSYTLTISSLQPEDFATYYCHQYHRSPRTFGGGTKLEIK
1.46 µg/mL | humanized antibody 225H7D12 VH1.4 + VL1.2 (antibody, V domains shown) VH: QVQLVQSGAEVKKPGASVKVSCKTTGYRFTGYWIEWVKQAPGQGLEWIGEILPGSGVSNNNEKFRDRATFTADTSINTAYMELSRLRSDDTAVYYCARKASYYTMDYWGQGTLVTVSS VL: DIQMTQSPSSLSASVGDRVTITCTASSSVSSFYFHWYQQKPGKAPKLWIYSISNLASGVPSRFSGSGSGTSYTLTISSLQPEDFATYYCHQYHRSPRTFGGGTKLEIK
1.18 µg/mL | humanized antibody 225H7D12 VH1.3 + VL1.2 (antibody, V domains shown) VH: QVQLVQSGAEVKKPGASVKVSCKASGYRFTGYWIEWVKQAPGQGLEWIGEILPGSGVSNNNEKFRDRATMTADTSINTAYMELSRLRSDDTAVYYCARKASYYTMDYWGQGTLVTVSS VL: DIQMTQSPSSLSASVGDRVTITCTASSSVSSFYFHWYQQKPGKAPKLWIYSISNLASGVPSRFSGSGSGTSYTLTISSLQPEDFATYYCHQYHRSPRTFGGGTKLEIK
1.09 µg/mL | humanized antibody 45F1F3 VH1.4 + VL1.1 (antibody, V domains shown) VH: DVQLQESGPGLVKPSQTLSLTCTVTGYSITIDYAWNWIRQPPGKGLEWMGYISNSGYTSYNPSLKSRITFSRDTSKNQFFLKLSSVTAADTAVYYCTRSGHYDLFDYWGQGTTVTVSS VL: DVVMTQSPLSLPVTLGQPASISCKSSQSLFDRDGKTYLSWLLQRPGQSPRRLIYLVSNLDSGVPDRFSGSGSGTDFTLKISRVEAEDVGVYYCWQGTHFPYTFGGGTKVEIK
~1.09 µg/mL | chimeric antibody 45F1F3 (human IgG1) (antibody, V domains shown) VH: DVQLQESGPGLVKPSQSLSLTCTVTGYSITIDYAWNWIRQFPGNKLEWMGYISNSGYTSYNPSLKSRISFTRDTSKNQFFLQLNSVTPEDSATYYCTRSGHYDLFDYWGQGTTLTVSS VL: DVVMTQAPLTLSVTIGQPASISCKSSQSLFDRDGKTYLSWLLERPGQSPKRLIYLVSNLDSGVPDRFTGSGSGTDFTLKISRVEAEDLGVYYCWQGTHFPYTFGGGTKVEMKR
1.08 µg/mL | humanized antibody 45F1F3 VH1.3 + VL1.1 (antibody, V domains shown) VH: QVQLQESGPGLVKPSQTLSLTCTVTGYSITIDYAWNWIRQPPGKGLEWMGYISNSGYTSYNPSLKSRVTISRDTSKNQFFLKLSSVTAADTAVYYCTRSGHYDLFDYWGQGTTVTVSS VL: DVVMTQSPLSLPVTLGQPASISCKSSQSLFDRDGKTYLSWLLQRPGQSPRRLIYLVSNLDSGVPDRFSGSGSGTDFTLKISRVEAEDVGVYYCWQGTHFPYTFGGGTKVEIK
0.0745 µg/mL | humanized antibody 270C5C10 VH1.2 + VL1 (antibody, V domains shown) VH: QVQLVQSGAEVKKPGASVKVSCKASGYTFTDNYMNWVRQAPGQSLEWIGDINPNNGGSRYKEKFKDRATLTVDTSIRTAYMELSRLRSDDTAVYYCANPGSYGFAYWGQGTLVTVSS VL: DVVMTQSPLSLPVTLGQPASISCKSSQSLLDSDGRTYLNWFQQRPGQSPRRLIYLVSQLDSGVPDRFSGSGSGTDFTLKISRVEAEDVGVYYCWQGTHFPWTFGGGTKLEIK
~0.0355 µg/mL | humanized antibody 270C5C10 VH1.4 + VL1 (antibody, V domains shown) VH: QVQLVQSGAEVKKPGASVKVSCKASGYTFTDNYMNWARQSPGQSLEWIGDINPNNGGSRYKEKFKDRATLTVDTSIRTAYMELSRLRSDDTAVYYCANPGSYGFAYWGQGTLVTVSS VL: DVVMTQSPLSLPVTLGQPASISCKSSQSLLDSDGRTYLNWFQQRPGQSPRRLIYLVSQLDSGVPDRFSGSGSGTDFTLKISRVEAEDVGVYYCWQGTHFPWTFGGGTKLEIK
~0.0374 µg/mL | chimeric antibody 270C5C10(Ha-L) (human IgG1) (antibody, V domains shown) VH: EVQLQQSGPEVVKPGASVKISCKASGYTFTDNYMNWAKQSQGKSLEWIGDINPNNGGSRYKEKFKDKATLTVDKSSRTAYMELRSLTSEDSAVYYCANPGSYGFAYWGQGTLVTVSA VL: not shown
1.26 µg/mL | chimeric antibody 225H7D12 (human IgG1) (antibody, V domains shown) VH: QVQLQQSGAEVMKPGASVKLSCKTTGYRFTGYWIEWVKQRPGHGLEWIGEILPGSGVSNNNEKFRDKATFTADTSSNTAYIQLSSLTTDDSAIYYCARKASYYTMDYWGQGTSVTVSS VL: QIVLTQSPAIMSASLGERVTMTCTASSSVSSFYFHWYQQKPGSSPKLWIYSISNLASGVPTRFSGSGSGTSYSLTISSMEAEDAATYYCHQYHRSPRTFGGGTKLEIKR
